In the nanobody polyreactivity screen of Harvey et al. (2022):

Test: yeast display, Sf9 membrane polyspecificity reagent, FACS + sequencing; frameworks hold sequencing errors
Summary of the method: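 A synthetic nanobody library was expressed on Saccharomyces cerevisiae BJ5465 by galactose induction for 36–48 hours. The library was stained for 1 hour at 4 °C with 10% biotinylated, detergent-solubilized Sf9 membrane reagent and enriched with streptavidin microbeads before FACS. Low and high (top ~1%) gates were set on anti-HA fluorescence for expression and streptavidin fluorescence for reagent binding, and each polyreactivity label reflects the gate of origin.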

Sequence	polyreactivity (PSR sort gate)
QVQLVDSGGGLVQAGGSLRLSCSASGSILGAYAMGWYRQSPGKERELVASISWSGGSTYYADSVKGRFTISRDNAKNTVYLQMNSLKPEDTAGYYCAASGIRYWLPYDYWGQGTQVTVSS	high polyreactivity
QVQLVDSGGGLVQAGGSLRLSSAASGRTFRYYTMGWYRQAPGKERELVAGISRSGANTYYADSVKGRFTISRDNAKNSVYLQMNSLKPEDTAVYYCNAVYGTYDWGQGTQVTVSS	high polyreactivity
QVQLVDSGGGLVQAGGSLRLSWAASGSTLYVNAIGFYRQAPGKERELVSAISWSGGSTNYADSVKGRFTISRDNAKNTVYLQMNSQKPEDTSVYYCAVYYRRWFSRYDYWGQGTQVTVSS	low polyreactivity
QVQLVDSGGGLVQAGGSLRLTCAASGRTFRYNAMGWYRQAPGKERDLVARISRGGSPYADSVKGRFTISRDNAKNTVYLQMNSLKPEDSAVYYCAADPTKHNQSEYYYWGQGTQVNVSS	low polyreactivity
QVQLVDSGGGLVQAGGSLRLTCAASGSTFDTNSVGWYRQAPGKERELVAAITSGGNTYADSVKGRFTISRDNAKNTVYFQMNSLKAEDTAVYYCAAEDVFTCWYDYWGQGTQVNVSS	low polyreactivity
QVQLVDSGGGLVQAGGSLRLTCDASGFIILYYAMRWYRQEPGKERELVADISRGADTKYADSVKGRFTISRDNAKNTVYLQMNSLKPEDTAVYYCATDITTFCFPYPGVELGYWGQGTQVTVSS	low polyreactivity
QVQLVDSGGGLVQAGGSLRLTSAASGRIFVRNAMGWYRPAPGKERELVAASSWSSGGTYYADSVKGRFTISRDNAKNRVYLQMNSLKPEETAVYSCIADTSRAGVYWGQGTQVTVSS	low polyreactivity
QVQLVDSGGGLVQAGGSLSLSCAASGNIFDYNVMGWYRQAPGKERELVAAITASAVRTYYADSVKGRFTISRDNAKNTVYLQMNSLKPEDIAVYYCGKRRIVRQRSYYYWGQGTQVTVSS	low polyreactivity
QVQLVDSGGGLVQAGGSLSLSCAASGRIFPYNAMGWYRQAPGKERELVAGISRTGGSTYYADSVKGRFTISRDNAKNTVYLQKNCLKTEDTAAYYCGARPGAHPDRLDYWGQGTQVTVSS	low polyreactivity
QVQLVDSGGGLVQAGGTLRLSCAASGFTFIYYAMGWYRQAPGKERELVAAISASGGSTYYADSVKGRFTISRDNAKNTVYLQMNSLKPEDTAVYYCNKYWRKPPAGGYYYWGQGTQVTVSS	high polyreactivity
QVQLVDSGGGLVQAGGTLRLSCAASGRTIRYNAMAWYRQAPGKERELVAAITGSGGSTYYADSVKGRFTISRDNAKNTVYLQMNSLKPEDTAVYYCARDGYLVYYYDWSYPYDSWGQGTQVTVSS	low polyreactivity
QVQLVDSGGGLVQAGGTLRLSCGASGLIFYLYAMGWFRQAPGKERELVAAITYSGGSTRYADSVKGRFTISRDNAKNTVYFQKNSLKPEDTAVYYCNAAGTAPTELDYWGQGSQVTVSS	low polyreactivity
QVQLVDSGGGLVQAGGTLSLSCAASGRTFWWYARGWSRQAPGTERELVDAITNFGSTNYADSVKGRFSISRDNAKNTVYLQKNSLKPEDTAVYYCAALTRCWYGGFYQYYYLGQGTQVTVSS	high polyreactivity
QVQLVDSGGGLVQAGPSLRLSCAASGSTFYLYAMGWYRQAPGKERELVAAITFRGSRTYYADSVKGRFTISRDNAKNTVYFQMNSLKPEDTAVYYCAADSYIERAYGSLGVWRYDYWGQGTQVTVSS	low polyreactivity
QVQLVDSGGGLVQAGVSLRLSCAASGSIFLLNAMGWYRQATGKERELVAAISWGGGSTYYADSVKGRFTISRDNAKNTVYLQMNSLKPEDTAVDYCNASVTLGQEVDYWGLGTQVTVSS	low polyreactivity
QVQLVDSGGGLVQEGGSLRLSCAASGSIFLIYAMGWYRQAPGKERELVAAITGGGTTNYADSVKGRFTISRDNAKNTVYLQMNSLKPEDTAVYYCNTLYLVYLYWTSPTPSDLFDYWGQGTQVTVSS	low polyreactivity
QVQLVDSGGGLVQSGGILRLSCAASGRTFRYYAMGSYRQAPGKERELVAAISSGGSTNYADSVKGRFTISRDNAKNTVYLQMNSLKPEDTAVYYCAALWSGNKFKYWGQGSQVTVSS	low polyreactivity
QVQLVDSGGGLVQSGGSLSLSCAASGFNFWPYAMGWYREAPGKEREFVAAITRTGGSTSYADSVKGRFTISRDNAKNTVYLQINSLKPEDTAVYYCAATSYYRTNYGLVFQYRRNYGGQGTQVTVSS	high polyreactivity
QVQLVDSGGRLLQAGGSLRLSSAASGLIFKRYAMGWYIQAPGKERELDAAITSGSSTNYADSVKGRFTISRDNAKNTVYLQMNSLKPEDTAVYYCARDVYFSPYYRRSFQWRFDYWGQGTQVTVSS	high polyreactivity
QVQLVDSGGRLVQAGGRLRLTCAASGFILSYNMGWYRQAPGKERELVATISYNDVSTYYADSVKGRFTISRDNAKNTVYLQMNSLKPEDTAVDYCNAQFPIITRRGYDYWGQGTQVNVSS	high polyreactivity
QVQLVDSGGRLVQAGGSLRLSCSASGIIIPSYAMGWYRQAPGKERELVAAISGRGGRTYYSDSVKGRFTISRDNAKNSVYLQMNSLKPEDTAVYYCAASGTSSSRKSYYWGQGTQVTVSS	high polyreactivity
QVQLVDSGGVLVQAGGSLRLSCAASGGTFRTYAMGWYRQAPGKERELVAAITWRGGSTYYADSVKGRFTISRDNAKNTVYLQMNSLKPEDTAVYNCAARVAYQWSFYKYDYWGQGTQVTVSS	high polyreactivity

Sequence	polyreactivity (PSR sort gate)
QVQLVDSGGVLVQAVGSLRLSCAASGLIFYSNAMGWYRQAPGKERELVATISWSGGSTYYADSVKGRFTSSRDNAKNTVYLQMNSLTPEDTAVYYCAAVTHPAWAVEYDYWGQGTQVTVSS	high polyreactivity
QVQLVDSGRGLVQAGGSLRLSCAASGSIFGKYAMGWYREAPGKERELVAAISKGGGRTSYADSVKGRFTISRDNAKNTVYLQMNSLKPEDTAVYYCNVAQNYWAGLYDYWGQGTQVTVSS	high polyreactivity
QVQLVDSGVGLVQAGGSLRLSCAASGRTFTTNTKGWYRDATWKERELVAAITWSGASTYYADSVKGRFTISRDNAKNTVYLQMNSLKPEDTAVYYCAAERTPSYRAYDYWGQGTQVTVSS	low polyreactivity
QVQLVDSVGGLVEAGGILRLSCAASGNTFGRNAMGWYRQEPGKESELVAAISFSGSRPYYADSVKGRFTISRDNAKYTVYLQRNSLKPEDTAVYYCNKRGADWTGFFYYQYDFWGQGTQVTVSS	low polyreactivity
QVQLVDTGGGLVQAGGSLRLSCSASGSNFEYNDMVWYRHAHGKERELVAAISSGGDTNYADSVKGRFTISRDNAKNTVYLQKNSLKAEDTAVYYCNAEGLILYDYWGQGTQVTVSS	low polyreactivity
QVQLVEAAGGLVQAGGSLRLSCAASGSIFRNNAMGWYSPAPGKARELVAVISRRSGNTYYADSVKGRLTISRENAKNPVYLLMNSLKPEDSAVYYCAADYSNSSIRGDYWGQGTEVTVSS	low polyreactivity
QVQLVEACGGLVQAGGSLRLSCAASRSIFPYNAMGWYRQAPGKDRELVATMSSGGSTNYADSVKGRFTISRDNAKNTVYLQKNSLKPEDTAVYYCNAEAAYYPLWMDYWGQGTQVTVSS	low polyreactivity
QVQLVEAGGGFVQAGGRLRLSCAASGSIFTLNTRGWYSPAPGKEREWVAAMTGSGGITYSADSVKGRFTISRDKAKKTVYLQLNSLKPEETAVYYCAADTGYVHAGYWGQGTQVTVSS	low polyreactivity
QVQLVEAGGGFYQPGGSLRLSCAASGRTFSYYASGWYRQAPGKERELVAAITDSGDSTYYADSVKGRFTISRDNANNTVYLQMKSLKPEDTAVYDCAATTYSWYDYWGQGTQVTVSS	high polyreactivity
QVQLVEAGGGLVQAGGSLRLSCAASGLIIAKYAMGWYRQAPGKERELVAGITSGGGTSYADSVKGRFTISRDNAKNTVYLQMNSLKPEDTAVNYCNAVVVGWFYQYDYWGQGTQVTVSS	low polyreactivity
QVQLVEAGGGLVQAGGSLRLSCAASGNIFLYYAMGWYRQAPGKEREFVADIDSSGASTYYADSVKGRFTISRDNAKNTVYLQMNSLKPEDTAVYYCAAEFHWWYAGYDYGYWGQGTQVTVSS	low polyreactivity
QVQLVEAGGGLVQAGGSLRLSCAASGRTFYQNAMGWNIQAPGKERELVAAISRSGGSTYYADSVKGRFTISRDNAKITVYLQMTSLKPEDTAVYYCAADPRSYGGGYDYWGQGTQVTVSS	high polyreactivity
QVQLVEAGGGLVQAGGSLRLSCAASGSIFVGNAMGWYRQAPGKERELVAAISSSGGRKFYADSVKGRFTISRDNAKNTVYLQMISLKPEDTAVYYCAAVYTHWQQRMDYWGQGTQVTVSS	high polyreactivity
QVQLVEAGGGLVQAGGSLRLSCAASGSTFPYYTMGGYRQAPGKDRELVAAITWRGGRTYYADSVKGRFTISRDNAKNTVYLQMNSLKPEDTAVYYCAAKQKHTQQTGWKYEYWGQGTQVTVSS	high polyreactivity
QVQLVEAGGGLVQAGGSLRLSCAASGSTFRWNAMGWYRQAPGKERELVAAITRSGGSTYYADSVKGRFTISRDNAKNTFYLQMNSLKPEDTAVYYCAAGYFTARRIRYDYWGQGTQVTVSS	high polyreactivity
QVQLVEAGGGLVQAGGSLRLSCAASGSTFYKNAMGWYRPAAGKERELVAGISRRGGPTYYADSVKGRFTISRDKAMNTVYLQMNSLNPEDTAVYYCNTGHEEDEYDYWGQGTQVTVSS	low polyreactivity
QVQLVEAGGGLVQAGGSLRLSCADCVSTGVNTMGWYRQAPGKERELVDAIRATGGSTYYADSVKGRFTISRDNAKNTVYLQMNSLKPEDTAVYYCAAKWFRLYLRQDRYYYWGQGTQVTVSS	high polyreactivity
QVQLVEAGGGLVQAGGTLRLSCAASGYTFIYYAMGWYRQAPGKERELVATISIDGSTNYADSVKRRFTISRDNAKNTVYLQMNSLKPEDTAVYYCNRERYEDYDYWGQGTQVTVSS	high polyreactivity
QVQLVEKGGGLVQAGGSLRLSCAASGSTFRNNAMGRYREAPGKERELVAAIPYSGDSTSYADSVKGRFTISRDNAKNTVYLQMNSLKPEDTAVYYCNAAIDGIYLGSYTAYGYDSWGQGTQVTVSS	low polyreactivity
QVQLVEKGGGLVQAGGSLRLSCAASGYIFRFYTKRWYRQAPGKERELVASITRSGGSTYYADSVKGRFTFSRENAKNTVYLQKNSLKPEDTAVYYCNARKTVGMDYWGQGTQVTVSS	low polyreactivity
QVQLVESAAGLVQAGGSLRLSCAASGIIFPRNVMGWYRQAPGKERELVAAITYSGGRTYYADSVKGRFTISRDNAKNTVYLQMNSLKPEDTAVYYCNADFRSQPYDYWGQGTQVTVSS	low polyreactivity
